Experimental data: patent US20030021774A1

Columns and labels:
Assay in all cases: cell-based or functional assay
[1] = target: T1, Sub.Novo, subtilisin from Bacillus amyloliquefaciens (Bacillus amyloliquefaciens) (UniProt P00782)
T1 sequence (looked up): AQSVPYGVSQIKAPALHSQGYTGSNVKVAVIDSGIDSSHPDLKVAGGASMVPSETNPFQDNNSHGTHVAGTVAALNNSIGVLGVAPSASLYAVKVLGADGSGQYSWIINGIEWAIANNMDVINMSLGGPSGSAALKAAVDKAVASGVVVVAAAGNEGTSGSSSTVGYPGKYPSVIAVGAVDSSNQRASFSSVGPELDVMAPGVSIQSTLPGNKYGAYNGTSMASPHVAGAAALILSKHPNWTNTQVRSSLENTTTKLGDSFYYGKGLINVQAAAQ

[2] = target: T2, SAVINASE, subtilisin derived from Bacillus clausii (previously Bacillus lentus NCIB 10309) (Bacillus clausii (previously Bacillus lentus NCIB 10309)) (UniProt P29600)
T2 sequence (looked up): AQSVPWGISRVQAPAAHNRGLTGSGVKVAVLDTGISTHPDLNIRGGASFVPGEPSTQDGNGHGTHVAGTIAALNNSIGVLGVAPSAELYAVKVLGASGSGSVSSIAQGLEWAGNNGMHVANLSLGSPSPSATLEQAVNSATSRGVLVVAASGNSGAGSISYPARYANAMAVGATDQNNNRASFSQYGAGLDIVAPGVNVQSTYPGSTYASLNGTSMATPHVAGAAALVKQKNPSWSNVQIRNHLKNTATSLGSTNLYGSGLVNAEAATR

[3] = target: protease derived from Bacillus alcalophilus NCIMB 10438 (Bacillus alcalophilus NCIMB 10438)
[4] = target: protease derived from Paecilomyces lilacinus CBS 102449 (Paecilomyces lilacinus CBS 102449)
[5] = target: protease derived from Bacillus sp. NCIMB 40484 (Bacillus sp. NCIMB 40484)
[6] = target: protease derived from Aspergillus sp. CBS 102448
[7] = target: protease derived from Fusarium oxysporum IFO 4471 (Fusarium oxysporum IFO 4471)
[8] = target: protease derived from Acremonium chrysogenum ATCC 48272 (Acremonium chrysogenum ATCC 48272)
[9] = target: T3, Sub.Novo(Y217L), mutant of subtilisin from Bacillus amyloliquefaciens (Bacillus amyloliquefaciens) (UniProt P00782)
T3 sequence (looked up): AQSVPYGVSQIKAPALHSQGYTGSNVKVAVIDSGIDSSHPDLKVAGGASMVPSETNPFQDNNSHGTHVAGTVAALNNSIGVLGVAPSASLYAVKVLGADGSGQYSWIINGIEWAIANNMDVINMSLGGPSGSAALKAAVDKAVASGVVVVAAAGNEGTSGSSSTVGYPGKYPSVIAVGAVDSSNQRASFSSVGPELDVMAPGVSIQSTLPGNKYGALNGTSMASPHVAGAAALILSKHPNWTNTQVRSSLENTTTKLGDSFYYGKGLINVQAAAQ

Chain of protease derived from Acremonium chrysogenum ATCC 48272 (Acremonium chrysogenum ATCC 48272) (P29118 other isoform, or with tags, fused parts or gaps): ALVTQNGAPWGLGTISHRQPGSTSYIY

B1: Streptomyces Subtilisin Inhibitor (SSI) (protein, UniProt P01006 32-144, looked up)
chain: DAPSALYAPSALVLTVGKGVSATTAAPERAVTLTCAPGPSGTHPAAGSACADLAAVGGDLNALTRGEDVMCPMVYDPVLLTVDGVWQGKRVSYERVFSNECEMNAHGSSVFAF
- Residual activity (%) on Suc-AAPF-pNA after incubation with SSI [1]: 0.1%
- Residual activity (%) on Suc-AAPF-pNA after incubation with SSI [2]: 0%
- Residual activity (%) on Suc-AAPF-pNA after incubation with SSI [3]: 0%
- Residual activity (%) on Suc-AAPF-pNA after incubation with SSI [4]: 0.1%
- Residual activity (%) on Suc-AAPF-pNA after incubation with SSI [5]: 4.3%
- Residual activity (%) on Suc-AAPF-pNA after incubation with SSI [6]: 0.1%
- Residual activity (%) on Suc-AAPF-pNA after incubation with SSI [7]: 0.1%
- Residual activity (%) on Suc-AAPF-pNA after incubation with SSI [8]: 0.1%
- Residual activity (%) on Suc-AAPF-pNA after incubation with SSI [9]: 0%
